Measurements reported in patent US20210253725A1 (BIONTECH, published 2021).

T1: CD27 protein (His-tagged, Sino Biological Inc. 10039-H08B1) (human, UniProt P26842 20-192)
T1 construct: bought; coated onto ELISA plates; also called human CD27; recombinant protein; not shown: His tag
T1 sequence (looked up): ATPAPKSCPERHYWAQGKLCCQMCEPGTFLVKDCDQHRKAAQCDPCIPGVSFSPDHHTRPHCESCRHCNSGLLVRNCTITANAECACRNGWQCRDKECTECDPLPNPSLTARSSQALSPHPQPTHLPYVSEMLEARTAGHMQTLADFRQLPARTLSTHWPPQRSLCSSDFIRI

T2: CD27 expressed on the cell surface (HT1080_CD27 cells) (human, UniProt P26842 20-260)
T2 sequence (looked up): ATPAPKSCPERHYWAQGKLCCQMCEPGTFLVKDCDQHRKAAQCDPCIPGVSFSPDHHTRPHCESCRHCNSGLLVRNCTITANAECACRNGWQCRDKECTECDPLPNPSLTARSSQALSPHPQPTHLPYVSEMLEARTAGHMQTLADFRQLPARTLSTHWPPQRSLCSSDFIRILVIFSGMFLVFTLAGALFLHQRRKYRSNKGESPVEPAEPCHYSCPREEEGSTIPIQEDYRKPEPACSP


Experiments:
[1] = target: T1, CD27 protein (His-tagged, Sino …); experiment: ELISA on coated His-tagged CD27
[2] = target: T2, CD27 expressed on the cell surface …; experiment: cell-based or functional assay
[3] = target: T2, CD27 expressed on the cell surface …; experiment: cellular binding assay, HT1080_CD27 cells
Further: test concentration or dose not given here.

ELISA [abs. corr.] [1] [abs. corr.]	IL-8, cross-linked by F(ab')2 fragment [abs. corr.] [2] [abs. corr.]	IL-8 [abs. corr.] [2] [abs. corr.]	Cellular binding assay [RFU] [3] [RFU]	Binder
3.13	2.16	1.78	175	P018.S.10.A.A04 (antibody, V domains shown, V regions on human Ig constant parts; also called AB27_164) VH: QSVEESGGRLVTPGTPLTLTCTVSGIDLSSNVMTWVRQAPGKGLEWIGYIYASATTYYATWAKGRFTISKTSTTVDLKMTSPTTEDTATYFCARERLASRGDYSDLWGQGTLVTVSS VL: AYDMTQTPASVEAAVGGTVTIKCQASESIGDLLAWYQQKPGQPPKLLIYDASDLASGVPSRFKGSGSGTEFTLTISGVESADAATYYCQQGYTTTSNVDNIFGGGTEVVVK
3.7	1.32	0.486	365	P018.S.04.A.D04 (antibody, V domains shown, V regions on human Ig constant parts; also called AB27_72) VH: QSVEESGGRLVTPGTPLTLTCTVSGIDLSSYSMTWVRQAPGKGLEWIGFINTGGRGYYASWAKGRFTISKTSTTVDLKITSPTTEDTATYFCARDAGSSRGYYRDLWGQGTLVTVSS VL: AYDMTQTPASVSAAVGGTVTIKCQASEDIYSLLAWYQQKPGQPPKLLIYDASDLASGVPSRFSGSGSGTDYTLTISGVESADAATYYCQQGYTTSTTVDNIFGGGTEVVVK
3.14	1.13	0.272	269	P018.S.06.A.C03 (antibody, V domains shown, V regions on human Ig constant parts; also called AB27_101) VH: QSLEESGGGLFQPGGSLTLTCKASGLDFSTNYYMCWVRQAPGKGLELIACISTSSGNTWYASWAKGRFTISKTSSTTVTLQMTSLTAADTATYFCARCDIVYVGYGYASRLDLWGQGTLVTVSS VL: AQVLTQTPSPVSAAVGGTVTINCQASESVYNNNNLAWYQQKPGQPPKFLIYGASSLASGVPSRFKGSGSGTQFTLTISDLESDDAATYYCAGGGSTSVGAFGGGTEVVVK
3.14	2.1	0.206	11	P018.S.10.A.C05 (antibody, V domains shown, V regions on human Ig constant parts; also called AB27_173) VH: QSVEETGGRLVTPGTPLTLTCAASGVSLSGYYAMSWVRQAPGKGLEWIGYLDATGSTYYASWVKGRFIISRPSTTVDLQITSPTIEDTATYFCARGSYDGVGYNWGLWGQGTLVTVSS VL: DIVMTQTPASVSEPVGGTVTIKCQASESIYNGLAWYQQKPGQPPKRLIYGASTLTSGVPSRFKGSGSGTEFTLTISDLESDDAATYYCQSNYGSGSRSNYIFGGGTEVVVK
3.48	1.57	0.451	335	P018.S.04.A.G04 (antibody, V domains shown, V regions on human Ig constant parts; also called AB27_78) VH: QSLEESGGRLVTPGTPLTLTCTASGFTISSHHVTWVRQAPGEGLEWIGVIYPSGTTYYASWAKGRFTISRTSTTVDLKMTSLTIEDTATYFCVRDVGYFTLWGQGTLVTVSS VL: AQVLTQTPSPVSAAVGGTVTISCQSSQSVGGNNWLAWYQQKLGQPPKLLIYYASTLASGVPPRFSGSGSGTQFTLTISEVQSDDSATYYCQGYYSDVTNAFGGGTEVVVK
3.5	1.08	0.308	414	P018.S.04.A.B05 (antibody, V domains shown, V regions on human Ig constant parts; also called AB27_68) VH: QSVEESGGRLVTPGTPLTLTCTASGFTLSSFYMSWVRQAPGKGLEWIGFIHGHGNTYYASWAKGRFTISKTSTTVDLKIASPTTEDTATYFCARGGHPNMDLWGQGTLVTISS VL: DIVMTQTPSSVEAAVGGTVTIKCQASQNINNYLAWYQQKPGQPPKLLIYYASTLASGVSSRFKGSGSGTEFTLTISDLESDDAATYYCQCSYYDASIFGAFGGGTEVVVR
3.14	1.21	0.325	206	P018.S.03.A.B05 (antibody, V domains shown, V regions on human Ig constant parts; also called AB27_43) VH: QEQLEESGGDLVKPEGSLTLTCTASGFDLSSRYWICWVRQAPGKGLEWIGCIKTGFSNTWYASWATGRFTFSKASSTTVTLQMTSLTVADTATYFCARIAAAASASDDFRLWGPGTLVTVSS VL: AQVLTQTPSSVSAAVGGTVTISCQSSKSVYNKWLSWFQQKPGQPPKLLIYDASDLASGVPSRFKGSGSGTEFTLTISDVQSDDAATYFCLGHYDSSSDRFVFGGGTEVVVK
3.5	1.21	-0.105	358	P018.S.01.A.G03 (antibody, V domains shown, V regions on human Ig constant parts; also called AB27_22) VH: QSVEESGGRLVTPGTPLTLTCTVSGFSLSSYSMIWVRQAPGKGLEWIGIVYASGSTNYASWAKGRFTISKTSTTVDLKITSPTTEDTATYFCARGDVLYAFDPWGPGTLVTVSS VL: AFELTQTPSSVSAAVGGTVTIKCQASENIYSYLAWYQQKPGQPPKRLIYYASNLASGVSSRFKGSGSGTEFTLTISDLESADAATYYCQYTYSTSPGYIFGGGTEVVVK
3.13	1.48	0.299	293	P018.S.02.A.A06 (antibody, V domains shown, V regions on human Ig constant parts; also called AB27_28) VH: QSVEESGGRLVKPDESLTLTCTVSGIDLSTYAMGWVRQAPGKGLEYIGMISTGGSAYYASWAQGRFTISRTSTTVDLKMTSLTTEDTATYFCARLRDPYSYRTYFNLWGPGTLVTVSS VL: ALVMTQTPSSVEAAVGGTVTIKCQASLSISSALAWYQQKPGQRPKLLIYDASNLESGVPSRFKGSGSGAHFTLTVSDLESADAATYYCQGPYDTVNNNSFGGGTEVVVK
3.15	1.09	0.328	300	P018.S.01.A.A05 (antibody, V domains shown, V regions on human Ig constant parts; also called AB27_2) VH: QEQLEESGGDRVQPEGSLTLTCTASGFSFSATYWICWVRQAPGKGLEWIACIFGRSSSDTYYASWAKGRFTISKTSSTTVTLQMTSLTAADTATYFCARGDSGHPYYYSFNLWGPGTLVTVSS VL: AYDMTQTPASVEVAVGGTVTIKCQASQSIGGYLAWYQQKPGQPPKLLIYGASTLASGVPSRFRGSGSGTEFTLTISDLDSADAATYYCQCTHGTRSDWAFGGGTEVVVK
3.13	1.08	0.128	379	P018.S.06.A.C06 (antibody, V domains shown, V regions on human Ig constant parts; also called AB27_102) VH: QQQLEESGGGLVKPGGTLTLPCKASGFTISSDYDMCWVRQAPGKGLEWITCILGGSGGSTWYANWAKGRFTISQSSSTTVTLQMTSLTDADTATYFCTRASGFTYFELWGPGTLVTVSS VL: AQVLTQTPSSVSAAVGGTVTINCQASQSVYNNKNLAWYQQKPGQPPKLLIYYASTLASGVSSRFKGSGSGTQFTLTISDVQSDDAATYYCQGEFSCSSSDCFAFGGGTEVVVK
3.14	1.1	0.089	273	P018.S.01.A.D05 (antibody, V domains shown, V regions on human Ig constant parts; also called AB27_13) VH: QSLEESGGRLVTPGTPLTLTCTASGFSLSSYYMSWVRQAPGKGLEYIGGIYTGGSAYYASWARGRFTISRTSTTVDLKMTSLTIEDTATYFCARDAGDRIYTTFNLWGPGTLVTVSS VL: ALVMTQTPASVSEPVGGTVSLKCQASQSIGSDLSWYQQKSGQPPKLLIYRASKLASGVPSRFKGSGSGTEFTLTISGVQSDDAATYYCLGIDSYSSDDGIAFGGGTEVVVK
